Results as given in patent US20240247080A1, “GLP1/GIP/NPY2 RECEPTOR TRIPLE AGONISTS” (Boehringer Ingelheim International GmbH, priority 2022, published 2024).
Starred links: 1 amine or outer side, 2 acyl side, 3 side chain; linkers in the order of their positions; H or OH if unused. Non-standard residues stand in square brackets, D forms with d. Groups on a side chain read outwards from the residue. No end group written: not given here. *: point of attachment. C18 diacid = O=C(O)CCCCCCCCCCCCCCCCC(=O)*; γGlu = O=C(O)[C@H](CCC(=O)[*:2])N[*:1]; εLys = N[C@@H](CCCCN[*:1])C(=O)[*:2]; AEEA = NCCOCCOCC(=O)O; Aib = CC(C)(N)C(=O)O

T1: human GIP receptor (human, UniProt P48546 22-466)
T1 sequence (looked up): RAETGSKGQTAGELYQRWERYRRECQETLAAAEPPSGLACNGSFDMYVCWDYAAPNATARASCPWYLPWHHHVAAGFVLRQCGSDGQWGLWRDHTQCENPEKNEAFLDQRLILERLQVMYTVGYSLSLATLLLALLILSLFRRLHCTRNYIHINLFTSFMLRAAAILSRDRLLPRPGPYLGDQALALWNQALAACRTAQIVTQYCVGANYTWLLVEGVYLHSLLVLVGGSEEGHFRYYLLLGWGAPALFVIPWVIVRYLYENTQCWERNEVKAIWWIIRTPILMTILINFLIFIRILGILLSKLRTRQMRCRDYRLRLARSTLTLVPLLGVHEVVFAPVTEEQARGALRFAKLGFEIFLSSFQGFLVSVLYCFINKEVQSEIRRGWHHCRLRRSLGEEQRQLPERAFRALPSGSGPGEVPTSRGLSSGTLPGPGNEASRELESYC

T2: human neuropeptide Y2 receptor (human, UniProt P49146 1-381)
T2 sequence (looked up): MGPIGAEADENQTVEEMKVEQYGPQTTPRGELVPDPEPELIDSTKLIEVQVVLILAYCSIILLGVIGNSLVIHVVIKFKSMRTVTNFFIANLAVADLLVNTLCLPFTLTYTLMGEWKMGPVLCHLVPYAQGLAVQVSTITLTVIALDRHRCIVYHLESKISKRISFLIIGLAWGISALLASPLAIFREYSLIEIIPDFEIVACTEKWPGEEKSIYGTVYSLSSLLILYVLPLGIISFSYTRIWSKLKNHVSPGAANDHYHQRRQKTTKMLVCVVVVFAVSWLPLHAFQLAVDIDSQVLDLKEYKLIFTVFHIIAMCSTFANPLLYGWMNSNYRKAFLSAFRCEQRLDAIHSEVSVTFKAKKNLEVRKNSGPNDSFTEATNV

B1: Compound 151 (peptide)
peptide: Y[Aib]EGTFTSDYSI[Aib]LEKQAQ[Aib]EFVQWLIK([γGlu-γGlu-γGlu-γGlu-γGlu-γGlu-C18 diacid])GGPSEGASLRHYYNWLTRQRY-NH2
B2: Compound 152 (peptide)
peptide: Y[Aib]EGTFTSDYSI[Aib]LEKQAQ[Aib]AFVEWLIK([εLys-γGlu-γGlu-γGlu-γGlu-γGlu-C18 diacid])GGPESGASLRHYYNWLTRQRY-NH2
B3: Compound 150 (peptide)
peptide: Y[Aib]EGTFTSDYSI[Aib]LEKQAE[Aib]AFVEWLIK([AEEA-AEEA-γGlu-γGlu-γGlu-γGlu-C18 diacid])GGPSSGASLRHYYNWLTRQRY-NH2
B4: Compound 147 (peptide)
peptide: Y[Aib]EGTFTSDYSI[Aib]LEKQAQ[Aib]AFVQWLIKGGPSSGASLRHYYNWLTRQRY-NH2
modifications: not fully specified (residue 28)
B5: Compound 148 (peptide)
peptide: Y[Aib]EGTFTSDYSI[Aib]LEKQAQ[Aib]AFVQWLIK([εLys-γGlu-γGlu-γGlu-γGlu-γGlu-C18 diacid])GGPSEPASLRHYYNWLTRQRY-NH2
B6: Compound 154 (peptide)
peptide: Y[Aib]EGTFTSDYSI[Aib]LEKQAQ[Aib]EFVQWLIK([εLys-γGlu-γGlu-γGlu-γGlu-γGlu-C18 diacid])GGPSEGASLRHYYNWLTRQRY-NH2
B7: Compound 159 (peptide)
peptide: Y[Aib]EGTFTSDYSI[Aib]LEKQAQ[Aib]EFVEWLIK([εLys-γGlu-γGlu-γGlu-γGlu-γGlu-C18 diacid])GGPSSGASLRHYYNWLTRQRY-NH2
B8: Compound 155 (peptide)
peptide: Y[Aib]EGTFTSDYSI[Aib]LEKQAQ[Aib]AFVQWLIK([εLys-Glu-Glu-Glu-Glu-Glu-C18 diacid])GGPEEGASLRHYYNWLTRQRY-NH2
B9: Compound 160 (peptide)
peptide: Y[Aib]EGTFTSDYSI[Aib]LEKQAQ[Aib]EFVQWLIK([AEEA-AEEA-γGlu-γGlu-γGlu-C18 diacid])GGPSEGASLRHYYNWLTRQRY-NH2
B10: Compound 158 (peptide)
peptide: Y[Aib]EGTFTSDYSI[Aib]LEKQAQ[Aib]AFVEWLIK([AEEA-AEEA-γGlu-γGlu-γGlu-γGlu-C18 diacid])GGPSSPASLRHYYNWLTRQRY-NH2

biological target: T1, human GIP receptor; assay: cell-based or functional assay

EC50 CreLuc hGIPR 0.5% hP	EC50 CreLuc hGIPR 100% hP	Binder
0.91 nM	1.28 nM	B1
0.4 nM	0.96 nM	B2
0.27 nM	1.65 nM	B3
0.19 nM	1.6 nM	B4
0.07 nM	0.47 nM	B5
0.4 nM	1.07 nM	B6
0.35 nM	0.91 nM	B7
0.14 nM	1.43 nM	B8
0.33 nM	0.91 nM	B9
0.11 nM	0.84 nM	B10

biological target: T2, human neuropeptide Y2 receptor; assay: cell-based or functional assay

EC50 CreLuc hNPY2R 0.5% hP	EC50 CreLuc hNPY2R 100% hP	Binder
18.9 nM	42.3 nM	B1
12.6 nM	39.1 nM	B2
16.7 nM	62.7 nM	B3
23.3 nM	65.6 nM	B4
11 nM	21.1 nM	B5
10.7 nM	21.6 nM	B6
13.8 nM	34.6 nM	B7
17 nM	95 nM	B8
8.23 nM	21.9 nM	B9
15.8 nM	39.9 nM	B10

biological target: human GLP-1 receptor (human, UniProt P43220 24-463); assay: cell-based or functional assay

EC50 CreLuc hGLP1R 0.5% hP	EC50 CreLuc hGLP1R 100% hP	Binder
0.26 nM	4.39 nM	B1
0.13 nM	4.24 nM	B2
0.31 nM	8.35 nM	B3
0.08 nM	1.54 nM	B4
0.08 nM	1.46 nM	B5
0.26 nM	6.65 nM	B6
0.19 nM	5.17 nM	B7
0.15 nM	7.18 nM	B8
0.3 nM	6.31 nM	B9
0.09 nM	3.25 nM	B10
